Experimental data as given in patent US20080131423A1 (US Dept. of Health and Human Services, published 2008).
Substitutions are numbered along the chain they refer to.

T1: human TREM-like transcript-1 (TLT-1) (human, UniProt Q86YW5 16-311)
T1 construct: whole, on cells; bands of 35 and 25 kDa; also called hTLT-1; TLT-1 on (HEK)293T transfected cells
T1 sequence (looked up): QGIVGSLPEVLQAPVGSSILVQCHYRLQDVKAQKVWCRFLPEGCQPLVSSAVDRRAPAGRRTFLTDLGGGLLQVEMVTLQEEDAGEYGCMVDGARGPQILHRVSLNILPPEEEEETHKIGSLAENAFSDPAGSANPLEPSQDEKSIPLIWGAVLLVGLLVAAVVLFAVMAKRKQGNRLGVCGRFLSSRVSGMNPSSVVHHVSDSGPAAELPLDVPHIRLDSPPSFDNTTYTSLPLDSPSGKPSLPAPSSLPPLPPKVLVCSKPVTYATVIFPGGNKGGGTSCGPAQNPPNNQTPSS

B1: scFv C10 (scFv)
scFv: MAEVQLLESGGGLVQPGGSLRLSCAASGFTFSSYAMSWVRQAPGKGLEWVSGISSTGGATTYADSVKGRFTISRDNSKNTLYLQMNSLRAEDTAVYYCAKSTYDFDYWGQGTLVTVSSGGGGSGGGGSGGGGSTDIQMTQSPSSLSASVGDRVTITCRASQSISSYLNWYQQKPGKAPKLLIYGASTLQSGVPSRFSGSGSGTDFTLTISSLQPEDFATYYCQQNADAPTTFGQGTKVEIKRAAAHHHHHHGAAEQKLISEEDLNGAA
notes: Human scFv from the Tomlinson I phage library; Soluble form made in E. coli HB2151 and purified on Protein L (28 kDa); also called clone C10
B2: scFv B8 (scFv)
scFv: MAEVQLLESGGGLVQPGGSLRLSCAASGFTFSSYAMSWVRQAPGKGLEWVSNITASGYATAYADSVKGRFTISRDNSKNTLYLQMNSLRAEDTAVYYCAKTTATFDYWGQGTLVTVSSGGGGSGGGGSGGGGSTDIQMTQSPSSLSASVGDRVTITCRASQSISSYLNWYQQKPGKAPKLLIYDASNLQSGVPSRFSGSGSGTDFTLTISSLQPEDFATYYCQQDTASPSTFGQGTKVEIKRAAAHHHHHHGAAEQKLISEEDLNGAA
notes: Human scFv from the Tomlinson I phage library; Soluble form purified on Protein L; also called GenBank DQ375452
B3: scFv A1 (scFv)
scFv: MAEVQLLESGGGLVQPGGSLRLSCAASGFTFSSYAMSWVRQAPGKGLEWVSGIGTTGYATAYADSVKGRFTISRDNSKNTLYLQMNSLRAEDTAVYYCAKGNSGFDYWGQGTLVTVSSGGGGSGGGGSGGGGSTDIQMTQSPSSLSASVGDRVTITCRASQSISSYLNWYQQKPGKAPKLLIYTASTLQSGVPSRFSGSGSGTDFTLTISSLQPEDFATYYCQQSSTDPGTFGQGTKVEIKRAAAHHHHHHGAAEQKLISEEDLNGAA
notes: Human scFv from the Tomlinson I phage library; Soluble form purified on Protein L; also called GenBank DQ375449
B4: scFv D1 (scFv)
scFv: B3 scFv with G52A, G101A, G104Y, T184S, S225D, D228S, G230D
notes: Human scFv from the Tomlinson I phage library; Soluble form purified on Protein L; also called GenBank DQ375454
B5: scFv A8 (scFv)
scFv: B3 scFv with A59S, G101T, N102A, S103Y, G104T, T184S, S225N, D228Y, G230A
notes: Human scFv from the Tomlinson I phage library; Soluble form purified on Protein L; also called GenBank DQ375451
B6: scFv A7 (scFv)
scFv: MAEVQLLESGGGLVQPGGSLRLSCAASGFTFSSYAMSWVRQAPGKGLEWVSAIGSYGSATAYADSVKGRFTISRDNSKNTLYLQMNSLRAEDTAVYYCAKNGYDFDYWGQGTLVTVSSGGGGSGGGGSGGGGSTDIQMTQSPSSLSASVGDRVTITCRASQSISSYLNWYQQKPGKAPKLLIYNASGLQSGVPSRFSGSGSGTDFTLTISSLQPEDFATYYCQQSAANPSTFGQGTKVEIKRAAAHHHHHHGAAEQKLISEEDLNGAA
notes: Human scFv from the Tomlinson I phage library; Soluble form purified on Protein L; also called GenBank DQ375450

Each binder was assayed against BSA (UniProt P02769 25-607) (assay: phage ELISA, immobilized antigen (data not shown)).
BSA, sequence (P02769 25-607 limits assumed): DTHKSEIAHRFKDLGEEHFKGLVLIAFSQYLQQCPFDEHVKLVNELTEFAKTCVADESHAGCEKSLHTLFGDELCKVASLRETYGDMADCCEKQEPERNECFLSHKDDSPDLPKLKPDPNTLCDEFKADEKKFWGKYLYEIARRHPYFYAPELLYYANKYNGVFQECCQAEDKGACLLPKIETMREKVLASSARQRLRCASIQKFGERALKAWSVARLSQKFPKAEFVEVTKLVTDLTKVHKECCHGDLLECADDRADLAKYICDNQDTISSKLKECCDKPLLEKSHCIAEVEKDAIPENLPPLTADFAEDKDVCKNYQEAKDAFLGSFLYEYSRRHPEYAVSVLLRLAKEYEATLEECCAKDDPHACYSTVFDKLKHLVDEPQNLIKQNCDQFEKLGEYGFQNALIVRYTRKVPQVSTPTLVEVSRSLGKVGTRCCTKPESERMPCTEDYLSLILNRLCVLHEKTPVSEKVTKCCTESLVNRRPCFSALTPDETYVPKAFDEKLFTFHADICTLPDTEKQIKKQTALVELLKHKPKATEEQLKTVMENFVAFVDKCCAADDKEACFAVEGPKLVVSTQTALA

| Binder | binding result |
| --- | --- |
| B1 | no binding |
| B2 | no binding |
| B3 | no binding |
| B4 | no binding |
| B5 | no binding |
| B6 | no binding |

What follows are binders tested against T1, human TREM-like transcript-1 (TLT-1) (assay: flow cytometry, purified scFv on TLT-1 transfected cells).
Description: For flow cytometric analysis with TLT-1-transfected cells, phage-containing supernatants were prepared from individual colonies as previously described (14). (HEK)293T-TLT-1 transfected cells (2×10⁵ cells) were washed with PBS/1% BSA and incubated with phages (2×10¹⁰ TU) or purified scFv (1 μg/ml). After 1 hr of incubation at 4° C., cells were washed twice with PBS/1% BSA. Phage binding was detected by incubation with mouse anti-M13 monoclonal antibody (Amersham Bioscience, Piscataway, N.J.), followed by incubation with phycoerithrin (PE)-conjugated anti-mouse antibody (Jackson Immunoresearch, West Grove, Pa.). To analyze scFv binding to human platelets, platelets were incubated with 1 μg of purified scFv for 1 hour at 4° C. and washed three times with PBS containing 0.5% sodium azide and 0.5% BSA. ScFv binding was detected using a FITC-conjugated anti-c-myc antibody (Sigma, St Louis, Mo.). TLT-1 expression was detected with a commercial anti-human TLT-1 pAb (R&D Systems, MN) as previously described (10).

| Binder | binding result |
| --- | --- |
| B3 | binds |
| B4 | binds |
| B5 | binds |
| B6 | binds |
